Changes are numbered by the printed parent chain.

Data set [1] concerns the target T1, TTHB099 (Thermus thermophilus HB8, UniProt Q53W63 1-195).
T1 sequence: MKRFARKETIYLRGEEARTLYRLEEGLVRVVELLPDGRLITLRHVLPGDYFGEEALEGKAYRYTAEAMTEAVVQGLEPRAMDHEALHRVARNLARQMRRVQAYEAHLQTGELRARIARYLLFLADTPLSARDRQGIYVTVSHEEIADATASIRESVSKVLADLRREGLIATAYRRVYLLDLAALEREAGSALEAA
Description: BLI; Buffer, salt, pH and temperature not given (as previously described); BLI 17, 50, 150, 450 nM TTHB099 on streptavidin sensors; EMSA 0-42.2 nM TTHB099. The following applies: protein: recombinant; label: 5' biotin. (BLI is a label-free optical method that tracks binding on a fibre tip over time.)

In data set [2] the target is T1, TTHB099. Kind of data set: BLI; up to 450 nM TTHB099; Buffer, salt, pH and temperature not given (as previously described); BLI 17, 50, 150, 450 nM TTHB099 on streptavidin sensors; EMSA 0-42.2 nM TTHB099. The settings on record: protein: recombinant; label: 5' biotin.

B1: TTHA1833 site (dsDNA)
DNA 1: AGGAATTCGTGCAGAGGTGAATTGTAGGCCAGGCCACGTTACCATCCCTCCAGAAGCTTG
DNA 2: CAAGCTTCTGGAGGGATGGTAACGTGGCCTGGCCTACAATTCACCTCTGCACGAATTCCT
One may read the Kd as the constant that tells how readily two partners part at equilibrium. Consider B1, for which the Kd in the data set with TTHB099 [1] was determined as 3.05 nM.

B2: ST2_099 m7 (dsDNA)
DNA 1: AGGAATTCGTGCAGAGGTGAATTGTATTTTAGAATACATTACCATCCCTCCAGAAGCTTG
DNA 2: CAAGCTTCTGGAGGGATGGTAATGTATTCTAAAATACAATTCACCTCTGCACGAATTCCT
B2: the equilibrium dissociation constant (Kd) in the data set with TTHB099 [1] worked out at 5.82 nM.

B3: ST2_099 m3 (dsDNA)
DNA 1: B2 DNA 1 with T25A, T29C
DNA 2: B2 DNA 2 with A32G, A36T
For the molecule B3, the dissociation constant Kd with TTHB099 [1] was 13.8 nM.

B4: TTHA0201/02 site (dsDNA)
DNA 1: B2 DNA 1 with G24T, A26G, T29A, G32C, A33G, A34C, T35C
DNA 2: B2 DNA 2 with A26G, T27G, T28C, C29G, A32T, T35C, C37A
With B4, in the data set with TTHB099 [1], the Kd is 780 nM.

B5: TTHA0506/07 site (dsDNA)
DNA 1: B2 DNA 1 with A26T, T30C, G32A, A33G
DNA 2: B2 DNA 2 with T28C, C29T, A31G, T35A
For the molecule B5, in the data set with TTHB099 [1], the Kd was found to be 77.6 nM.

B6: ST2_099 m1 (dsDNA)
DNA 1: B2 DNA 1 with T23G, T29C
DNA 2: B2 DNA 2 with A32G, A38C
On to B6, for which the Kd with TTHB099 [1] came to 6.29 nM.

B7: TTHB088/89 site (dsDNA)
DNA 1: B1 DNA 1 with T23G, G28C, C30T, A31G, G33A, G38A
DNA 2: B1 DNA 2 with C23T, C28T, T30C, G31A, C33G, A38C
Regarding B7, in the data set with TTHB099 [1], the Kd is 3.35 nM.

B8: TTHA1911/12 site (dsDNA)
DNA 1: B2 DNA 1 with T27C, T30G, A33C, A38C
DNA 2: B2 DNA 2 with T23G, T28G, A31C, A34G
On to B8, for which, in the data set with TTHB099 [1], the Kd amounted to 65.6 nM.

B9: TTHA0080/81 site (dsDNA)
DNA 1: B2 DNA 1 with A26G, A33T, A34T, A38T
DNA 2: B2 DNA 2 with T23A, T27A, T28A, T35C
In the case of B9, in the data set with TTHB099 [1], the dissociation constant Kd was 93.2 nM.

B10: TTHA1626/27 site (dsDNA)
DNA 1: B1 DNA 1 with T23G, G27T, C29G, C30G, G32A, C35T, G38A
DNA 2: B1 DNA 2 with C23T, G26A, C29T, G31C, G32C, C34A, A38C
Turning to B10, the Kd in the data set with TTHB099 [1] is 102 nM.

B11: TTHA0374 site (dsDNA)
DNA 1: B2 DNA 1 with T23A, A26G, T27A, T29G, G32A, A34C, C37A
DNA 2: B2 DNA 2 with G24T, T27G, C29T, A32C, A34T, T35C, A38T
In the case of B11, in the data set with TTHB099 [2], the binding result is on record as “no binding”.

B12: ST2_099 m4 (dsDNA)
DNA 1: B2 DNA 1 with A26C, T29C
DNA 2: B2 DNA 2 with A32G, T35G
For the molecule B12, the Kd with TTHB099 [1] came to 9.56 nM.

B13: TTHA0132/33 site (dsDNA)
DNA 1: B2 DNA 1 with T27A, T28G, T29G, T30G, C37A
DNA 2: B2 DNA 2 with G24T, A31C, A32C, A33C, A34T
For the molecule B13, in the data set with TTHB099 [1], the equilibrium dissociation constant (Kd) stood at 221 nM.

B14: ST2_099 m2 (dsDNA)
DNA 1: B2 DNA 1 with G24T, T29C
DNA 2: B2 DNA 2 with A32G, C37A
Turning to B14, in the data set with TTHB099 [1], the Kd amounted to 33.6 nM.

B15: ST2_099 m8 (dsDNA)
DNA 1: B2 DNA 1 with T29C, T30A
DNA 2: B2 DNA 2 with A31T, A32G
For the molecule B15, the Kd with TTHB099 [1] was found to be 6.81 nM.

B16: ST2_099 m5 (dsDNA)
DNA 1: B2 DNA 1 with T27C, T29C
DNA 2: B2 DNA 2 with A32G, A34G
As for B16, the Kd with TTHB099 [1] came to 4.86 nM.

B17: ST2_099 m6 (dsDNA)
DNA 1: B2 DNA 1 with T28A, T29C
DNA 2: B2 DNA 2 with A32G, A33T
Consider B17, for which, in the data set with TTHB099 [1], the dissociation constant Kd was determined as 5.61 nM.

B18: ST2_REPSAis control (dsDNA)
DNA 1: CTAGGAATTCGTGCAGAGGTGAATCGTCATAGAATTCGTTACCATCCCTCCAGAAGCTTGGAC
DNA 2: GTCCAAGCTTCTGGAGGGATGGTAACGAATTCTATGACGATTCACCTCTGCACGAATTCCTAG
In the case of B18, the binding result with TTHB099 [2] is on record as “no binding”.

Values taken from paper PMC7662524, “Determination and Dissection of DNA-Binding Specificity for the Thermus thermophilus HB8 Transcriptional Regulator TTHB099”.
